The record followed here is paper PMC3857245.

The experiment has as its target 3xFLAG-tagged rat KCNQ2 (rat) (UniProt O88943). As to the kind of experiment: co-IP; KCNQ2-CaM complex immunoprecipitated in calcium (–) condition, the resin then exposed to 500 µM Ca2+; time course of CaM left on KCNQ2.
UniProt O88943, sequence (O88943 whole entry): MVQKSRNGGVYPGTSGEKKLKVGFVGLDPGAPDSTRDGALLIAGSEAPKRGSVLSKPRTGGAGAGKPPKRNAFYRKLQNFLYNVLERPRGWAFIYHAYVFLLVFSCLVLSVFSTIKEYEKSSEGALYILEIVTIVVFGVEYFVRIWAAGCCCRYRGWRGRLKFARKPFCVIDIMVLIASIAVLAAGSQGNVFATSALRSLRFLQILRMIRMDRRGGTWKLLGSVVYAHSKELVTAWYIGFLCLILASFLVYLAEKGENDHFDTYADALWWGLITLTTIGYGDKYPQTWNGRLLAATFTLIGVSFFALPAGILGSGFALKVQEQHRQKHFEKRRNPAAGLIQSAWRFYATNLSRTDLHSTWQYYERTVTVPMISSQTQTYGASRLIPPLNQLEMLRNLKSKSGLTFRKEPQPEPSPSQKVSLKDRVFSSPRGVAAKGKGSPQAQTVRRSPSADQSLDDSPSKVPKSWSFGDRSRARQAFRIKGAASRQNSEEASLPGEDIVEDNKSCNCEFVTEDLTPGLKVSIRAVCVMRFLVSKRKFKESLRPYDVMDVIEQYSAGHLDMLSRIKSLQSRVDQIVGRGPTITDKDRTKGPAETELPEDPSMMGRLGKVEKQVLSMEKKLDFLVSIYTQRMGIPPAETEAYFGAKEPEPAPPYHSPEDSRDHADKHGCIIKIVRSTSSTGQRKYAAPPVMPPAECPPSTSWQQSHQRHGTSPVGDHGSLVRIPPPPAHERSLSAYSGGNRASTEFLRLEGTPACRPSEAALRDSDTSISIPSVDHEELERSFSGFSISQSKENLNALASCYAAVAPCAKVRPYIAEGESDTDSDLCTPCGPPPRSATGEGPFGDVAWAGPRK

For the substance “V5-epitope tagged calmodulin (from UniProt P0DP23 1-149) (natural protein)”, the time constant of calcium-induced dissociation was found to be 20.7 s.
